# Data: the DeepSol protein solubility set
# Experiment: soluble on expression in E. coli; label from the status in PepcDB or PDB records
row,Sequence,soluble on expression in E. coli
1,GPGSMSEHATTDLEGRYAQLATIQSEIDAAPLLSPTVEKLGDGCNLMTEFSDNPPMLVKVVSLWRNEETKYKGIRYARRDGNCFYRSVVFGMHESLLNNKERAGAHLERITDLSRQVVADYGNFAEDFCHPAVEMAKKIESGECSTVEQLYELSTNGEAEYALYFYRYAVSHHIRTHEDDFLPFVVGMGHETVSEFCSVEVDAVASEADNVQVVAFAQCFDVRVIVEYVDGREGDCTTRHTFQQKDSHDANEYTTIEVTLLYRPGHYDLLYK,soluble
2,GPGSMSETIPVSVQCCEGRFELSVDSNHTLRDVLRQFKREVAALDPINLEEYVVNHEGKLLLDDSVTLQTVGVKKDSVFVLVRKACCPAASPEKDEDDM,soluble
3,GPGSMSTFETVKEEKLEFEKNCDQHIYEKALLTFKGVDGMDVYNCSAPFKYEGRTHIFGRVEKRLEWANSYVRLFVETNKDEFTLVPGNMVWQLEDPFVSNIDNEMFLGGTHIRKTNNRVFTYYCDFFRGTAENLSYFTTGPDNMKDIRLVKLANNKIGVFSRPKTAAHAFIGFTVINNVMELTPTVIEEAPPLNVIHTGAWGGVNQAYLLSSDKLGCISHYSYIDKDEDGNEITVYTNYSFVLNPYLREVEDARIIGTKGCYPKCSPKVHKLLDCAFSSGIVMREDGRCDLYSGLGDAHEGRITIDYPFEGHGTLIDNLHF,soluble
4,GPGSMTSASKKSTEENSEEVECTNSSRKRRMRQRERNIYISECHGIKELSSLVRRGFQQIMTARGLFISGCPDLVKLDDGTSGEEEGGEYYRQLEEVQVSRCPRLTDLSGLGKCKYLKVVDISDCRKLENIGELKSCRTLEKLALSRCTGLVDVNLRGFGKLLSFDIFKCANLTKICGLFGCPILETLTVEECGDVKEMEVRTIRGRVETLRIAGKRAMENVGFLCLFTNMKKLALCGCVGTVAEVLGEEAGGLPRLKWLELIGIRMERQMKDKPGNGVAATEEGNNAKRVLPMIVQNE,not soluble
5,GPGSMVPTLHPGEYIVFVPYTMLQVRRWFNAPLVNLSDVVVVKVSDDLSVCKRVVKCTSSRTQAEEWGKEHYVEVMPALYSPPAAQHTNGDDEDSTEIDSVANSERAYFDYVARNTVRSKDWDSCIDRIPNPSQWVWLEGDNKSESFDSRRCGPVPIECIRGLVLASIWPSPHTLQRPPPPPRASQLH,not soluble
6,GPGSMVRRNNKSTESTIVFTRGAGDNSLWDDADLIRLWNAQLEEDQCEKAEDEAPVPSTVSEDGSLITTEDDEVAESEQKSSLRSFQSGQREAGVASAIVTAAPINASVAPVVLHQSMFDRLPADIRQLLVAYFNAGYEAGYFVGKRDGSSKVGGKRARGE,not soluble
7,GPGSMVVASCPGKVLILGGYLIVEEPNVGISVGTTARFVTRVASWKKCSDGKCRVHIVSSQFNKEFTFECAAEEDSDSTIKIVQLEGAPSPFLFYGILYSVAGALLFGGDIFRDVTLELLADNDFYSQRNYLESQGKPVTAANLRLIPRYTPLLGEVSKTGLGSSAAMTTSVVACLLQLYVFDSKKNNATESVERAPELPLRLEDVTEFIHRISQVAHCVAQGKVGSGFDVYTATFGTCVYRRFSARVLEKLVKGNEPPKRVTIPLLRECVETDEVWVQRIPFRLPTGLQLLLGDVHKGGTETPGMVSKVMSWRRSVTTDPNSLWERLRMSNEKYVEALQGLIKQSQEAPVAYTEAVKNLKSVVLAKHNPSTEAERLWVEAASVASTSRRYLREMGEAAQVQIEPPELTSLLDATCSIPGVFAVGCPGAGGYDAVFALVLGEEVCSAVERFWECYNDLQVCPLLVRGDANGLVLD,not soluble
8,GPGSMYRSDTDERKRRQSVSWRKRASFIELDCGEDSFFVANNYKVIGVADGVGGWRAEGVDPSLFANALMENAKLFAETHRGERDPEKILDAAYTKVVKDGIVKVGSSTACVATLRKDDDGSHKLDVANLGDSGVMVVRNRSMYFRAHEKVHGFNAPFQLAVLPQPMVGRAFSDRVQDCVRESVPVQEGDVIVMGTDGLFDNRFNSQLAADAGWIGKVEESPIAKIPLVGFFLSGILDEKIDYVDPYRVAQRIITDAYKTSVNPDTNSPWASMLRQFGQTDAKGGKPDDITVLLSRVSTREELSNSTSW,not soluble
9,GPGSPKLVRINTNEKGITNVQLARAPVNSMSLELFQELNQWMLWLGSNEETKAVIISSAIPTVFSAGLDLVEVHNPKPDRVAVFWQSFQEMWLILNSFPKPIIAAITGNSPAAGCIIAMGCDYRVMARGPKGNTNNNRLYRIGLNETKLGLVAPPWVMPAYAYLLGSRQAERMLQLGETPVADDARNLGLIDEVAADEERAIEVAYQQAERFLSVPQQSRWMARDMMRREYLQMLASDEERNYDTEFFTQFVQSPEVQKNLESYLERLKSCSRK,soluble
10,GPGSYDSNLYVASLPEWFTDADLHELFKRFGPIVSAKVMCHKGTHHCKGYGFVLFQRTDDAAVARSEMIGHVVGGNKIQVRRARSAASAPLTEAASAVSGTFTESSGSTRTSSSNVTPINYSVHVVPSQQPSFNPLYPATTALTPTYVLTNPSAPVQNATHTQPAMLVAVPNGRTMVQGAGDVMYMVLASSAQQMQSTSAIY,not soluble
11,GPHMLGILNKMFDPTKRTLNRYEKIANDIDAIRGDYENLSDDALKHKTIEFKERLEKGATTDDLLVEAFAVVREASRRVTGMFPFKVQLMGGVALHDGNIAEMKTGEGKTLTSTLPVYLNALTGKGVHVVTVNEYLASRDAEQMGKIFEFLGLTVGLNLNSMSKDEKREAYAADITYSTNNELGFDYLRDNMVLYKEQMVQRPLHFAVIDEVDSILIDEARTPLIISGQAAKSTKLYVQANAFVRTLKAEKDYTYDIKTKAVQLTEEGMTKAEKAFGIDNLFDVKHVALNHHINQALKAHVAMQKDVDYVVEDGQVVIVDSFTGRLMKGRRYSEGLHQAIEAKEGLEIQNESMTLATITFQNYFRMYEKLAGMTGTAKTEEEEFRNIYNMQVVTIPTNRPVVRDDRPDLIYRTMEGKFKAVAEDVAQRYMTGQPVLVGTVAVETSELISKLLKNKGIPHQVLNAKNHEREAQIIEEAGQKGAVTIATNMAGRGTDIKLGEGVKELGGLAVVGTERHESRRIDNQLRGRSGRQGDPGITQFYLSMEDELMRRFGAERTMAMLDRFGMDDSTPIQSKMVSRAVESSQKRVEGNNFDSRKQLLQYDDVLRQQREVIYKQRFEVIDSENLREIVENMIKSSLERAIAAYTPREELPEEWKLDGLVDLINTTYLDEGALEKSDIFGKEPDEMLELIMDRIITKYNEKEEQFGKEQMREFEKVIVLRAVDSKWMDHIDAMDQLRQGIHLRAYAQTNPLREYQMEGFAMFEHMIESIEDEVAKFVMKAEIENNLEREEVVQGQTTAHQPQEGDDNKKAKKAPVRKVVDIGRNAPCHCGSGKKYKNCCGRTE,soluble
12,GPLGSEEEQFALALKMSEQEAREVNNQEEKEEELLRKAIAESLNS,soluble
13,GPLGSGTWDCDTCLVQNKPEAVKCVACETPKPG,soluble
14,GPLGSLPEELVHAGWEKCWSRRENRPYYFNRFTNQSLWEMPVLGQHDVISDP,soluble
15,GPLHMKAVVPGPAEHPLQYNYTFWYSRRTPGRPTSSQSYEQNIKQIGTFASVEQFWRFYSHMVRPGDLTGHSDFHLFKEGIKPMWEDDANKNGGKWIIRLRKGLASRCWENLILAMLGEQFMVGEEICGAVVSVRFQEDIISIWNKTASDQATTARIRDTLRRVLNLPPNTIMEYKTHTDSIKMPGRLGPQRLLF,soluble
16,GPSRVVYLGSIPYDQTEEQILDLCSNVGPVINLKMMFDPQTGRSKGYAFIEFRDLESSASAVRNLNGYQLGSRFLKCGYSSNSDISGVSQQQQQQYN,soluble
17,GPVDMTERLKVMTIFGTRPEAIKMAPLVLELQKHPEKIESIVTVTAQHRQMLDQVLSIFGITPDFDLNIMKDRQTLIDITTRGLEGLDKVMKEAKPDIVLVHGDTTTTFIASLAAFYNQIPVGHVEAGLRTWDKYSPYPEEMNRQLTGVMADLHFSPTAKSATNLQKENKDESRIFITGNTAIDALKTTVKETYSHPVLEKLGNNRLVLMTAHRRENLGEPMRNMFRAIKRLVDKHEDVQVVYPVHMNPVVRETANDILGDYGRIHLIEPLDVIDFHNVAARSYLMLTDSGGVQEEAPSLGVPVLVLRDTTERPEGIEAGTLKLAGTDEETIFSLADELLSDKEAHDKMSKASNPYGDGRASERIVEAILKHFNK,soluble
18,GQLVESGGGSVQAGGSLRLSCAASGIDSSSYCMGWFRQRPGKEREGVARINGLGGVKTAYADSVKDRFTISRDNAENTVYLQMNSLKPEDTAIYYCAAKFSPGYCGGSWSNFGYWGQGTQVTVSSH,soluble
